Reference: article PMC2367712
“And” between values parts separate entries of the source, which are not always exact repeats. Equal values may be shown once.

Molecular target: M. tuberculosis Lsr2 R86A mutant protein (M. tuberculosis)
Assay: cross-linking

M. tuberculosis Lsr2 R86A mutant protein (natural protein)
stoichiometry N: 2 and 4
